Where two headings read alike, the source gives them in different places.
B1: 102.1F10 IgE (antibody, V domains shown)
VH: QVQLVQSGAEVRNPGASVKVSCKASGYTFTSYAIHWVRQAPGHRLEWVGRINTDNGNTKYSQKFHGRVALSRDTSASTTYMDLSSLNSEDTAVYYCARAFYYSSGVMFDSWGQGALVTVSS
VL: QSALTQPPSVSGAPGQRVSISCTGGSSNFGAGYDVHWYQQLPATAPKLLIYGNNNRPSGVPDRFSGSKSGTSASLAITGLQAEDEGDYFCQSFDTSLSGWIFGGGTKLTVL
B2: 102.1F10 Fab (Fab, V domains shown)
VH: B1 VH
VL: B1 VL

Key:
Test in all cases: SPR
[1] = molecular target: Phl p 7 wild-type (Timothy grass, UniProt O82040)
[2] = molecular target: T1, Ole e 3 (Olea europaea (common olive), UniProt O81092)
[3] = molecular target: Bet v 4 (UniProt Q39419)
[4] = molecular target: T1, Ole e 3; remark: listed apart in the source
[5] = molecular target: Bet v 4 (UniProt Q39419); remark: listed apart in the source

Bet v 4, sequence (Q39419 whole entry): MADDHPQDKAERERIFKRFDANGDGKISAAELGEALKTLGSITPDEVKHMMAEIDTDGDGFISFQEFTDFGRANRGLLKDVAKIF
Phl p 7 wild-type, sequence (O82040 whole entry): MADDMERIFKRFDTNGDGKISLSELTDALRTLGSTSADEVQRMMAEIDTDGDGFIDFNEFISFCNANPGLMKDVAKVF

Binder | Kd [1] [nM] | binding result [2] | fold weaker binding than Phl p 7 [3] [fold] | binding result [4] | fold weaker binding than Phl p 7 [5] [fold]
B1 | 0.17 | binds | 1000 |  | 
B2 |  |  |  | binds | 1000

— paper PMC6140506 (Proceedings of the National Academy of Sciences of the …, 2018)
